# T1: CBL (47-357) S226E (UniProt P22681 47-357)
# T1 construct: range 47-357; Point mutant within Duet-His-Δlinker-hSLAP2-CBL; also called S226E (CBL mutant)
# T1 sequence (looked up): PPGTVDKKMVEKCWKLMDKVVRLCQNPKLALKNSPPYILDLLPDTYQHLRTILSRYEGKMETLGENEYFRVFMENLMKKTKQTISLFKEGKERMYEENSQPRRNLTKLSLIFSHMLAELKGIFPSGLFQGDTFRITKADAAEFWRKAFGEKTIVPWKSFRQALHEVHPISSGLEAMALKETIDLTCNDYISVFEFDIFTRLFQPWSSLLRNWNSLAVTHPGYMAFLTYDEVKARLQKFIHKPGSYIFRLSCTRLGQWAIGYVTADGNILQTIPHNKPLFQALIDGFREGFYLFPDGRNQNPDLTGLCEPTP
# B1: Trx-His(6)-Δlinker-hSLAP2 (human SLAP2 29-261) (other)
# chain: EAERSKATAVALGSFPAGGPAELSLRLGEPLTIVSEDGDWWTVLSEVSGREYNIPSVHVAKVSHGWLYEGLSREKAEELLLLPGNPGGAFLIRESQTRRGSYSLSVRLSRPASWDRIRHYRIHCLDNGWLYISPRLTFPSLQALVDHYSELADDICCLLKEPCVLQRAGPLPGKDIPLPVTVQRTPLNWKELDSSLLFSEAATGEESLLSEGLRESLSFYISLNDEAVSLDDA
# notes: also called Trx-His-SLAP2; SLAP2 WT; not shown: N-terminal thioredoxin (Trx)-His(6)-TEV-site tag and linker of the modified pET32a (Δlinker version)
# Target: T1, CBL (47-357) S226E
# Test: Ni-NTA co-purification from Duet co-expression, high salt (0.5 M NaCl), Coomassie SDS-PAGE
# Experimental: Cell pellets were resuspended in either high or low salt (as for high salt except 25 mM HEPEs pH 7.5, 150 mM NaCl) lysis buffer and purified as above on Ni-NTA agarose (Qiagen) with wash buffer (25 mM HEPEs pH 7.5, 150 mM NaCl, 2% glycerol, 20 mM imidazole, 10 mM βME). Bead slurry was mixed with SDS 2X loading buffer (125 mM Tris pH 6.8, 4% SDS, 20% glycerol, 0.715 M βME, bromophenol blue), boiled, and analyzed by 10 or 12.5% SDS-PAGE, stained with Coomassie blue.
binder,measurement,value
B1,binding result,no binding

# From patent US20230212239A1, “INHIBITORS OF CBL AUTOINHIBITION AND RELATED METHODS” (THE HOSPITAL FOR SICK CHILDREN, priority 2020, published 2023)
